Test results taken from patent US20080279856A1, “Inhibition of Bradykinin Release” (Novo Nordisk Pharmaceuticals, Inc., priority 1999, published 2008).
Numbering of substitutions follows the chain as printed. Numbers in names are those of the source. Entries after “also recorded” stand apart in the source; their conditions may differ.

Experiments:
[1] = tested on: HBP-induced increase in EC permeability; experiment: Inhibition of HBP-induced increase in EC permeability; type: cell-based, human, bovine; details: peptide 3 μg/ml for 30 min, wash; HBP 75 μg/ml; N=6
Source text: Alternatively, HBP antagonists may be detected by culturing endothelial cells in the presence of HBP and in the presence and absence of a substance suspected of being an antagonist. In a specific embodiment, the antagonist is a monoclonal antibody that binds to at least one epitope of HBP, preferably human HBP, wherein said epitope binds to prekallikrein-H-kininogen complex and activates release of bradykinin. In a preferred embodiment, the monoclonal antibody is a human monoclonal antibody. In one embodiment, the antibody and HBP are preincubated together before incubating with endothelial cells for about 10 minutes at 37° C. The effect of the substance on the permeability of endothelial cells is determined by measuring transendothelial electrical resistance or determining albumin clearance as described in the Examples, infra. A decrease in permeability would indicate that the substance does act as an HBP antagonist.
For measurement of electrical resistance across the EC monolayer, the filter insert is transferred to a resistance measurement chamber (ENDOHM-12; World Precision Instruments, Sarasota, Fla., USA) modified so as to assure exact positioning of the electrodes in relation to each other and to the filter insert during repeated measurements. The chamber (lower compartment) and the filter insert (upper compartment) are filled with 2 ml and 400 μl culture medium, respectively. […] Direct readings of the electrical resistance are given by an ohmmeter (EVOM; World Precision Instruments, Sarasota, Fla., USA) connected to the electrodes of the resistance chamber. The electrical resistance of individual EC monolayers is obtained by subtracting the resistance of the corresponding naked filter coated with Biomatrix as measured prior to seeding of the endothelial cells.
Evans blue dye-conjugated albumin (EBA) is used as a marker for macromolecular permeability of the EC monolayers. […] In experiments where albumin permeability is analyzed, the culture medium in the upper compartment is exchanged for medium containing EBA. […]

[2] = tested on: bradykinin-induced increase in EC permeability; experiment: Inhibition of bradykinin-induced increase in EC permeability; type: cell-based, human, bovine; details: peptide 3 μg/ml for 30 min; bradykinin 100 nM at 15 min after HBP
Description: For measurement of electrical resistance across the EC monolayer, the filter insert is transferred to a resistance measurement chamber (ENDOHM-12; World Precision Instruments, Sarasota, Fla., USA) modified so as to assure exact positioning of the electrodes in relation to each other and to the filter insert during repeated measurements. The chamber (lower compartment) and the filter insert (upper compartment) are filled with 2 ml and 400 μl culture medium, respectively. All measurements are made at 37° C. with the equipment placed in a cell culture incubator. Direct readings of the electrical resistance are given by an ohmmeter (EVOM; World Precision Instruments, Sarasota, Fla., USA) connected to the electrodes of the resistance chamber. The electrical resistance of individual EC monolayers is obtained by subtracting the resistance of the corresponding naked filter coated with Biomatrix as measured prior to seeding of the endothelial cells.
Before transferring the filter inserts to the resistance measurement chamber (kept at 37° C.), the medium in the insert and in the chamber is replaced with fresh culture medium (37° C.) supplemented with 10 mM Hepes. HBP (25-100 μg/ml) or PMN secretion product is added either to the upper or the lower compartment and change in transendothelial electrical resistance is measured every minute until a plateau phase is reached, and thereafter at 5-min intervals. In separate experiments, PMNs (2×10^6) preincubated with mAb IB4 (10 μg/ml) are added to the upper compartment (PMN:EC ratio=10:1) and allowed to sediment for 10 min. Activation of the PMNs is induced through antibody crosslinking of leukocytic CD18 by addition of goat anti-mouse IgG F(ab′)2 diluted 1:20. In experiments where albumin permeability across the EC monolayer is studied, the medium in the insert contained EBA. During the experiment, the filter insert is moved at 5-10 min intervals to new wells containing fresh medium. All incubations are made at 37° C. After the experiment, the medium in the lower wells is aspirated and analyzed for EBA content.

endothelial cells = experiment: EC response to CD18 cross-linking in PMNs (Ca2+ and TEER); type: cell-based, human, bovine; details: EC pre-treated
Description: Human umbilical vein endothelial cells (HUVEC) and bovine aorta endothelial cells (BAEC) are isolated and cultured as previously described (Gautam et al. 1998, Brit. J. Pharm. 125:1109-1114). HUVEC or BAEC in the first to fifth passages are detached by brief (2 min) trypsin-EDTA treatment (0.25% trypsin/0.01% EDTA) and replated onto either 0.2 μm pore size Anopore inorganic membrane or 3.0 μm pore size polycarbonate filters (Tissue Culture inserts, 10 mm; NUNC, Roskilde, Denmark). In order to promote cellular differentiation and enhance attachment of endothelial cells (ECs), the filters are pretreated with 50 μl Biomatrix 1 (167 μg/ml) and air-dried. […] The EC are grown to confluent monolayers, as assessed by daily microscopic observation and measurement of the electrical resistance across the monolayer (Gautam et al 1998, Brit. J. Pharm. 125:1109-1114).
Two different approaches are used for assessment of stimulation-induced changes in EC permeability. […] Electrical resistance across the EC monolayer is measured at 37° C. with electrodes in each compartment exactly positioned in relation to each other and to the monolayer. The electrical resistance of individual EC monolayers is obtained by subtracting the resistance of the corresponding naked filter coated with Biomatrix as measured prior to seeding of the endothelial cells. […]

aprotinin = aprotinin (Bos taurus, UniProt P00974); experiment: Ability of HBP variants to bind aprotinin; type: binding
EC permeability = experiment: Leakage model: bradykinin release and EC permeability induced by HBP variants; type: cell-based
[3] = 3H-LPS binding to HBP, scintillation proximity assay
Description: The affinity for lipopolysaccharide (3H-LPS) is measured by scintillation proximity assay technology (SPA) as described (Linde, V., Bjørn, S., Kastrup, J. S., and Flodgaard, H., 2000, Biotechniques 28:218-222). All samples are repeated in triplicates.

[4] = 125I-BPTI binding to HBP, scintillation proximity assay; parameters: species or system bovine; details: competition with unlabeled BPTI; read-out: apparent IC50 of 125I-BPTI binding
Description: (§1) The relative affinities of HBP and the mutants are determined by performing competition studies with […] of unlabeled BPTI.

125I-BPTI = experiment: as above; parameters: species or system bovine
Description: as §1

human monocytes = experiment: LPS induced IL-6 release from monocytes; type: cell-based; details: 24 hours, serum-free medium
Source text: Human monocytes are isolated and treated as described (Rasmussen, P. B., Bjørn, S., Hastrup, S., Nielsen, P. F., Norris, K., Thim, L., Wiberg, F. C., and Flodgaard, H. (1996) FEBS Lett. 390: 109-112), with the exception that 1% non-essential amino acids is excluded from the medium.

## SDDDWIPDIQTDPNGLSFNPISDFPDTTSPK (listed as Homo sapiens) [SDD31]
[1]
  effect on HBP-induced increase in EC permeability: largely prevented
[2]
  effect on bradykinin-induced permeability change: persisted

## HKHGHGHHKKNKGKKNGKH (listed as Homo sapiens) [HKH20]
[1]
  effect on HBP-induced increase in EC permeability: prevented
[2]
  effect on bradykinin-induced permeability change: but not the permeability change induced by subsequent administration of bradykinin

## CC(=O)OCOC(=O)CN(CC(=O)OCOC(C)=O)c1ccccc1OCCOc1ccccc1N(CC(=O)OCOC(C)=O)CC(=O)OCOC(C)=O [BAPTA AM]
Endothelial cells
  effect on change in TEER: completely inhibited
  effect on rise in EC free intracellular Ca2+: completely inhibited

B1: porcine HBP: Porcine heparin-binding protein, very homologous to human HBP, unable to bind aprotinin (protein)
chain: IVGGRRAQPQEFPFLASIQKQGRPFCAGALVHPRFVLTAASCFRGKNSGSASVVLGAYDLRQQEQSRQTFSIRSISQNGYDPRQNLNDVLLLQLDREARLTPSVALVPLPPQNATVEAGTNCQVAGWGTQRLRRLFSRFPRVLNVTVTSNPCLPRDMCIGVFSRRGRISQGDRGTPLVCNGLAQGVASFLRRRFRRSSGFFTRVALFRNWIDSVLNNPP
aprotinin
  ability to bind aprotinin: unable to bind aprotinin

B2: HBP mutant (G175N): HBP mutant unable to bind aprotinin, three dimensional structure unaltered (protein)
chain: IVGGRKARPRQFPFLASIQNQGRHFCGGALIHARFVMTAASCFQSQNPGVSTVVLGAYDLRRRERQSRQTFSISSMSENGYDPQQNLNDLMLLQLDREANLTSSVTILPLPLQNATVEAGTRCQVAGWGSQRSGGRLSRFPRFVNVTVTPEDQCRPNNVCTGVLTRRGGICNGDNGTPLVCEGLAHGVASFSLGPCGRGPDFFTRVALFRDWIDGVLNNPGP
EC permeability
  induction of bradykinin release and EC permeability: induces bradykinin release and increase in EC permeability
aprotinin
  ability to bind aprotinin: unable to bind aprotinin

B3: [R23S,F25E]HBP: Mutant of human HBP with R23S and F25E in the putative lipid A/LPS binding site (protein)
chain: B2 chain with R23S, F25E, N175G
[3]
  lipid A/LPS binding property: do not affect
[4]
  IC50: ~7 nM
125I-BPTI
  binding capacity for 125I-BPTI: larger binding capacity as compared to HBP
  binding of BPTI: do not affect; also recorded: binds BPTI
Human monocytes
  stimulation of LPS induced cytokine-release (IL-6): do not affect

B4: [G175Q]HBP: Mutant of human HBP with G175Q in the BPTI binding site (protein)
chain: B2 chain with N175Q
[3]
  lipid A/LPS binding property: comparable to that of native HBP
125I-BPTI
  binding of BPTI: eliminated; also recorded: no binding
Human monocytes
  stimulation of LPS induced cytokine-release (IL-6): only a very limited stimulation
